Experimental data reported in publication PMC5201418.

How the values were obtained:
[1] = molecular target: TbAdoMetDC H172A (Trypanosoma brucei)
[2] = molecular target: Trypanosoma brucei S-adenosylmethionine decarboxylase, wild type (Trypanosoma brucei)
[3] = molecular target: N-terminally truncated TbAdoMetDCΔ26 (Trypanosoma brucei)
[4] = molecular target: TbAdoMetDC-W137A/M146A (Trypanosoma brucei)

Sequence of Trypanosoma brucei S-adenosylmethionine decarboxylase, wild type (Trypanosoma brucei) (P50244 1-85, tags left off, chain 1 of 2): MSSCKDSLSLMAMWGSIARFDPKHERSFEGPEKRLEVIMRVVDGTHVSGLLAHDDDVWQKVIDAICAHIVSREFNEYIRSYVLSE
Sequence of Trypanosoma brucei S-adenosylmethionine decarboxylase, wild type (Trypanosoma brucei) (P50244 86-370 limits assumed, chain 2 of 2): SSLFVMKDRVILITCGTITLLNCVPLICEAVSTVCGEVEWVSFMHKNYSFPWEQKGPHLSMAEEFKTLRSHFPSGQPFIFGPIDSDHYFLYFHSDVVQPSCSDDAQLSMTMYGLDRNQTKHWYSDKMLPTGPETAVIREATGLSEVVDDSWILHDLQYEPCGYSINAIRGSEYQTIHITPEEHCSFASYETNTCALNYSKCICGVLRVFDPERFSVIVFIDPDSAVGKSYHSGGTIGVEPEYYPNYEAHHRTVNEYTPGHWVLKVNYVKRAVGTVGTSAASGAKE

Trypanosoma brucei prozyme, wild type (natural protein)
kcat/Km of AdoMet decarboxylation (14C-AdoMet, 37°C) by the TbAdoMetDC/prozyme heterodimer, with 4 mM putrescine [1]: 2100 s^−1M^−1 | kcat/Km of AdoMet decarboxylation (14C-AdoMet, 37°C) by the TbAdoMetDC/prozyme heterodimer, without putrescine [1]: 93 s^−1M^−1 | kcat/Km of AdoMet decarboxylation (14C-AdoMet, 37°C) by the TbAdoMetDC/prozyme heterodimer, with 4 mM putrescine [2]: 3200 s^−1M^−1 | kcat/Km of AdoMet decarboxylation (14C-AdoMet, 37°C) by the TbAdoMetDC/prozyme heterodimer, without putrescine [2]: 2600 s^−1M^−1 | kcat/Km of AdoMet decarboxylation (14C-AdoMet, 37°C) by the TbAdoMetDC/prozyme heterodimer, with 4 mM putrescine [3]: 7.6 s^−1M^−1 | kcat/Km of AdoMet decarboxylation (14C-AdoMet, 37°C) by the TbAdoMetDC/prozyme heterodimer, without putrescine [3]: 2.2 s^−1M^−1 | kcat/Km of AdoMet decarboxylation (14C-AdoMet, 37°C) by the TbAdoMetDC/prozyme heterodimer, with 4 mM putrescine [4]: 87 s^−1M^−1 | kcat/Km of AdoMet decarboxylation (14C-AdoMet, 37°C) by the TbAdoMetDC/prozyme heterodimer, without putrescine [4]: 5 s^−1M^−1

prozyme-M148'A/Y152'A (natural protein)
kcat/Km of AdoMet decarboxylation (14C-AdoMet, 37°C) by the TbAdoMetDC/prozyme heterodimer, with 4 mM putrescine [2]: 660 s^−1M^−1 | kcat/Km of AdoMet decarboxylation (14C-AdoMet, 37°C) by the TbAdoMetDC/prozyme heterodimer, without putrescine [2]: 16 s^−1M^−1
